T1: EsCas13d, nuclease-dead (Eubacterium siraeum, UniProt B0MS50, R295A;H300A;R849A;H854A)
T1 sequence: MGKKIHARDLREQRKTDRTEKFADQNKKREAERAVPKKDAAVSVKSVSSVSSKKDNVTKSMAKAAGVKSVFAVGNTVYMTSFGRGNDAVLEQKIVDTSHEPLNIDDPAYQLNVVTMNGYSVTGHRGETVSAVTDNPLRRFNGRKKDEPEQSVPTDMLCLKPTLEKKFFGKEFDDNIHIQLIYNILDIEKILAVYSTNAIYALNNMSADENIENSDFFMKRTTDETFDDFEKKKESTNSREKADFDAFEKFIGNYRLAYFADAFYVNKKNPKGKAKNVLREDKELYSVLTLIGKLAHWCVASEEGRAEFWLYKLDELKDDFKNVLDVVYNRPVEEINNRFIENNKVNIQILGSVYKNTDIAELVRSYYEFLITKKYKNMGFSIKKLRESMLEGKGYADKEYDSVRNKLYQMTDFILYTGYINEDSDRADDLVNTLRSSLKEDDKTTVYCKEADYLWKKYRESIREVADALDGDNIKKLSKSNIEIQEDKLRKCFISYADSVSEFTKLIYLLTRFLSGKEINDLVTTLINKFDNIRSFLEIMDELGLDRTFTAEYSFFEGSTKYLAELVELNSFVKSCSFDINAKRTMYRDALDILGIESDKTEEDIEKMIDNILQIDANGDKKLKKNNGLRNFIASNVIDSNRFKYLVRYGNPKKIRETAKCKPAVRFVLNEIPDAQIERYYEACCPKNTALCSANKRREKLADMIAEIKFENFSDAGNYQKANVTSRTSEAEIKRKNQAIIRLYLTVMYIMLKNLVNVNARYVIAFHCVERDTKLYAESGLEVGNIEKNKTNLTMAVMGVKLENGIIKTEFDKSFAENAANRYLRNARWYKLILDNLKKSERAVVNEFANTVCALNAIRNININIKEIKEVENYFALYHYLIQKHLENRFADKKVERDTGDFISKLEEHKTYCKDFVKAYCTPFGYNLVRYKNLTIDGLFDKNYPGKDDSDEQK

B1: target 1 insC 3' of 17,insG 3' of 16 (mixed)
RNA 1: CACCCGUGCAAAAAUGCAGGGGUCUAAAACUGAGCGGAUAACCUCUCUAUGG
RNA 2: GGGAAUGGAUCCACAUCUACGAAUUCGUACCAUAGCAGGAGGUUAUCCGCUCACCGAGAUCGGAAGAGCACACGU
B2: target 1 insC 3' of 15,insU 3' of 15 (mixed)
RNA 1: CACCCGUGCAAAAAUGCAGGGGUCUAAAACUGAGCGGAUAACCUCUCUAUGG
RNA 2: GGGAAUGGAUCCACAUCUACGAAUUCGUACCAUAGAGCUAGGUUAUCCGCUCACCGAGAUCGGAAGAGCACACGU
B3: target 1 insU 3' of 17,insC 3' of 9 (mixed)
RNA 1: CACCCGUGCAAAAAUGCAGGGGUCUAAAACUGAGCGGAUAACCUCUCUAUGG
RNA 2: GGGAAUGGAUCCACAUCUACGAAUUCGUACCAUAGUAGAGGUUACUCCGCUCACCGAGAUCGGAAGAGCACACGU
B4: target 1 insA 3' of 7,insA 3' of 4 (mixed)
RNA 1: CACCCGUGCAAAAAUGCAGGGGUCUAAAACUGAGCGGAUAACCUCUCUAUGG
RNA 2: GGGAAUGGAUCCACAUCUACGAAUUCGUACCAUAGAGAGGUUAUCACGCAUCACCGAGAUCGGAAGAGCACACGU
B5: target 1 insG 3' of 9,insC 3' of 9 (mixed)
RNA 1: CACCCGUGCAAAAAUGCAGGGGUCUAAAACUGAGCGGAUAACCUCUCUAUGG
RNA 2: GGGAAUGGAUCCACAUCUACGAAUUCGUACCAUAGAGAGGUUAGCUCCGCUCACCGAGAUCGGAAGAGCACACGU
B6: target 1 insC 3' of 8,insG 3' of 7 (mixed)
RNA 1: CACCCGUGCAAAAAUGCAGGGGUCUAAAACUGAGCGGAUAACCUCUCUAUGG
RNA 2: GGGAAUGGAUCCACAUCUACGAAUUCGUACCAUAGAGAGGUUAUCCGCGCUCACCGAGAUCGGAAGAGCACACGU
B7: target 1 insU 3' of 9,insC 3' of 8 (mixed)
RNA 1: CACCCGUGCAAAAAUGCAGGGGUCUAAAACUGAGCGGAUAACCUCUCUAUGG
RNA 2: GGGAAUGGAUCCACAUCUACGAAUUCGUACCAUAGAGAGGUUAUUCCCGCUCACCGAGAUCGGAAGAGCACACGU
B8: target 1 C2G,G13A (mixed)
RNA 1: CACCCGUGCAAAAAUGCAGGGGUCUAAAACUGAGCGGAUAACCUCUCUAUGG
RNA 2: GGGAAUGGAUCCACAUCUACGAAUUCGUACCAUAGAGAAGUUAUCCGCUGACCGAGAUCGGAAGAGCACACGU
B9: target 1 A9U,U11C (mixed)
RNA 1: CACCCGUGCAAAAAUGCAGGGGUCUAAAACUGAGCGGAUAACCUCUCUAUGG
RNA 2: GGGAAUGGAUCCACAUCUACGAAUUCGUACCAUAGAGAGGCUUUCCGCUCACCGAGAUCGGAAGAGCACACGU
B10: target 1 insA 3' of 11,insU 3' of 7 (mixed)
RNA 1: CACCCGUGCAAAAAUGCAGGGGUCUAAAACUGAGCGGAUAACCUCUCUAUGG
RNA 2: GGGAAUGGAUCCACAUCUACGAAUUCGUACCAUAGAGAGGUAUAUCUCGCUCACCGAGAUCGGAAGAGCACACGU
B11: target 1 insU 3' of 12,insC 3' of 9 (mixed)
RNA 1: CACCCGUGCAAAAAUGCAGGGGUCUAAAACUGAGCGGAUAACCUCUCUAUGG
RNA 2: GGGAAUGGAUCCACAUCUACGAAUUCGUACCAUAGAGAGGUUUACUCCGCUCACCGAGAUCGGAAGAGCACACGU
B12: target 1 insU 3' of 1 (mixed)
RNA 1: CACCCGUGCAAAAAUGCAGGGGUCUAAAACUGAGCGGAUAACCUCUCUAUGG
RNA 2: GGGAAUGGAUCCACAUCUACGAAUUCGUACCAUAGAGAGGUUAUCCGCUCAUCCGAGAUCGGAAGAGCACACGU
B13: target 1 U19A,C21U (mixed)
RNA 1: CACCCGUGCAAAAAUGCAGGGGUCUAAAACUGAGCGGAUAACCUCUCUAUGG
RNA 2: GGGAAUGGAUCCACAUCUACGAAUUCGUACUAAAGAGAGGUUAUCCGCUCACCGAGAUCGGAAGAGCACACGU

Biological target: T1, EsCas13d, nuclease-dead
Test: crRNA (strand 1, pre-loaded); Mg2+; 40 mM Tris-HCl pH 7.5, 150 mM NaCl, 6 mM MgCl2, 1 mM DTT, 0.1% Tween-20, 0.2 mg/ml BSA; 25 C; 10 min per concentration, then washed
Details: tags: His6-TwinStrep-SUMO cleaved; N-terminal SNAP kept (SNAP-Surface 488); label: 3' end held by stalled T7 RNA polymerase

For B1, which Kd is on record?
Its Kd is 64 ± 6 nM.

With B2 as the binder, how does the Kd read?
Its Kd is 23.3 ± 1.1 nM.

B3 was tested. Which Kd did it give?
The Kd was 25.1 ± 1.6 nM.

For B4, which Kd is on record?
The Kd was 4.53 ± 0.23 nM.

For B5, which Kd is on record?
Its Kd is 17.2 ± 0.7 nM.

How did the Kd turn out when B6 was run?
Its Kd is 10.3 ± 0.9 nM.

B7 was tested. Which Kd did it give?
The Kd was 42 ± 10 nM.

For B8, which Kd is on record?
The Kd was 5.4 ± 0.6 nM.

B9 was tested. Which Kd did it give?
The Kd was 13 ± 1 nM.

How did the Kd turn out when B10 was run?
Its Kd is 48 ± 5 nM.

How did the Kd turn out when B11 was run?
The Kd was 11.6 ± 0.6 nM.

For B12, which Kd is on record?
Its Kd is 9.6 ± 0.4 nM.

With B13 as the binder, how does the Kd read?
The Kd was 10.3 ± 1 nM.

— paper PMC10786891, “Massively parallel profiling of RNA-targeting CRISPR-Cas13d”
